We go through three molecules from US20040138156A1, “Therapeutic regulation of deoxyribonuclease-1-like-3 activity” (priority 2002, published 2004).

“Also recorded” adds a separate entry of the source.

One data set deals with bone marrow macrophages. As to the kind of experiment: Induction of D1L3 in cultured bone marrow macrophages (anti-D1L3 immunoblot, RDA, zymogram). The format is cell-based, C57BL mice. To be noted: 100 U/ml for the interferons. On the procedure:
FIG. 22. Normal and induced expression of D1L3 in murine macrophages. […] In anti-D1L3 blots of cell lysates, the protein is seen both as a ^˜34 kDa uncleaved molecule and a ^˜28 kDa cleaved molecule. […] Cells were plated on serum-coated tissue culture dishes and incubated overnight, the next morning, non-adherent cells (N) were rinsed vigorously with PBS 1×, and both adeherent (A) and non-adherent cells (N) from C57BL, NZB/W, BXSB, and MRL were lysed and immunoblotted with anti-D1L3. While the ^˜34 kDa size band consistent with uncleaved D1L3 is present in both adherent and non-adherent, the cleaved form (^˜28 kDa) is present almost exclusively in the adherent population of presumed macrophages. Also noticable are the higher levels of expression of D1L3 in the 3 latter lupus strains. Panel B: Untreated bone marrow macrophages from NZB/WF1 mice have a much higher baseline expression expression of D1L3 than C57BL macrophages.
Induction is present in macrophages from both strain though the absolute level of induction appears greater in C57BL than in the SLE-prone NZB/W F1 strain. NZB/W protein loads in Ifn-γ-negative lane is slightly underloaded relative to actin. Panel C: Bone marrow macrophages isolated from bone marrow (via adherence) from MRL and C57BL mice, and cultured for 2 days in vitro, were induced by Ifn-γ. […] No induction of D1L3, RDA-DNASE, or zymographic DNASE activity is evident upon tratement with 100 U/ml of Ifn-alpha. […] Panel D: Bone marrow macrophages from C57BL and MRL mice cultured for 7 days in the presence of GM-CSF were induced with Ifn-γ, again showing the higher baseline levels of 28 kDa enzyme in the lupus prone strain, and in C57BL showing induction of levels aftern Ifn-γ. […]
Assays of Murine Cells. […] Splenocytes were counted using a hemochromocytometer, and plated at 2 million cells/ml on plastic 6-well Falcon tissue culture dishes (Becton Dickinson) in RPMI with 10% FCS. […]
On the technique in general: In western blotting, separated proteins are transferred to a membrane and probed.

Another data set has as its system Ad5.CMV-GFP. As to the kind of experiment: Adenoviral gene transduction of HeLa cells in conditioned media, GFP immunoblot. The format is cell-based, adenovirus serotype 5. Conditions: lysed at 72 hours. On the procedure:
FIG. 30. D3-media confers an in vitro barrier to adenoviral gene transduction (BT). This figure provides anti-GFP immunoblots at 1:5000 (Clontech) of Ad.V.GFP infected (MO 100:1) of 100,000 HeLa cells. Infection of HeLa cells with Ad5.CMV-GFP (a 1st generation (DE1/DE3) adenovirus serotype 5 expressing GFP under the control of CMV-IE promoter (Qbiogene)) was performed in the presence of D1, D3, D1+D3CT, or control conditioned media. Infected cells were lysed at 72 hours and tested for GFP expression (n=3 expts). […] Thus DNASE1L3 or DNASE enzymes linked to the D3CT diminish adenoviral gene transfer. […] Actin levels were generally equivalent in infected cells.

A further data set has as its system liposomal-bound plasmid. The experiment in a line: Cell-free nuclease activity assay on free or FuGene-bound plasmid. The class given is biochemical. To be noted: FuGene-bound plasmid, 37° C., 1 hour. On the procedure:
FIG. 16. […] Representative experiment (n=3) of exposure of […] free (−) or liposomal-bound (+FuGene) plasmid to control media with 10% fetal calf serum (lanes 1-2), D1 (lanes 3-4), D1L3 (lanes 5-6), D3DCT (lanes 7-8), and N196K-D3 (lanes 9-10).
Cell-Free Nuclease Activity Assay. Free plasmid DNA or plasmid complexed with lipofection reagent was incubated with conditioned at 37° C. for 1 hour. The incubation was terminated with […] EDTA, and DNA extracted using Promega Wizard DNA Purification System, eluted in […] water, and electrophoresed on a 1% agarose gel.

The test system of the next data set is free DNA. The experiment in a line: Radial diffusion assay (RDA) of nuclease activity against free DNA in conditioned media. The format is biochemical. On the procedure:
(§1) Transfection Reagents and Resistance Assays. Lipofection of respective pcDNA3.1-D1 or -D3 ([…] purified with Promega Wizard Plus DNA system) was performed independently into 1-2 million HeLa cells, which produce a low background of secreted nuclease activity, when grown in DMEM with 10% FCS (LifeTech) in 6 well culture plates (Becton-Dickinson). […] Media of the transfected cells were conditioned for 36-48 hours and served as source of the respective enzymes. Nuclease activity in conditioned supernatant was measured by RDAs, zymograms and by testing activity against supercoiled pBluescript (Stratagene).
Nuclease Assays. Nuclease activity against “naked” or free DNA in CM was quantified by densitometry of RDAs. For assays of media by murine cells, RDAs were performed using conditioned media, after 36 hour incubation of equal numbers of target cell population. Each conditioned media was sampled in triplicate. RDAs for all four mice were performed on a single dish. For RDAs, 2-5 ul of conditioned supernatant was dotted on 100 mm dishes containing 2% agarose, 250 ug/ml DNA, 0.001% EtBr, 0.5% filtered milk, 10 mM Ca^+2/MgCl2; and 12.5 ug/ml kanamycin. Multiple observations were generated for every sample obtained. After 24 hours of 37° incubation, plates are photographed under UV transillumination; and scanned photos were analyzed with NIH image. For RDAs, the activity was quantified as the product of mean density and area (traced on image) of zones of clearing. For observations of serum/urine, 2-5 ul of serum were dotted on agarose plates.
Zymograms are in-gel renaturation assays performed by SDS-PAGE through a gel impregnated with 200 µg/ml DNA and ethidium bromide, eluting away SDS with repeated washes in 25 mM Tris-HCl pH 7.5, then incubating for 12-16 hours at 37° C. in 25 mM Tris-HCl pH 7.5 with 10 mM Ca^+2/Mg^+2 buffer. Activity is measured as dark “bands” of DNA digestion (Rosenthal et al., (1977) Anal. Biochem. 80, 76-90) and quantified using scanned images using NIH Image. Photographed RDA results were scanned 600 dpi Tiff images, and activity was measured as pixel area times density of traced zones of clearing (n=3 for each zone). Student's T-test was used to compare paired results. Nuclease activity ratios were obtained by comparing intra-plate results.

A further data set relates to HeLa cells. As to the kind of experiment: BT assay: liposomal N1-eGFP transfection of HeLa cells in DNASE-conditioned media, GFP immunoblot. The format is cell-based. On the procedure: In the main assay, an eukaryotic marker such as green fluorescent protein (GFP) expression plasmid complexed with a lipid reagent is transfected into HeLa cells incubated in control media, D1L3-conditioned media, or D1-conditioned media (FIG. 4). The assay is not limited to the use of GFP as a marker, but could use any of many expressed biomarkers encoded by nucleotides that can be assayed either immunochemistry, fluorescent detection, or enzymatic detectection, and these include but are not circumscribed to luciferase, chloramphenicol acetyl-transferase, antibiotic or chemical resistance genes, Beta-galactosidase, FLAG-, myc-hemaglutinnin-, or other epitope tagged molecules, as well as other markers of gene or nucleotide transduction. The endpoint of the assay is the detection of a synthesized protein, but could easily have been the detection of a transcribed gene product, since the assay ultimately measures the ability of D1L3 added the media/milieu overlaying the cells to block the ultimate association of an expressible plasmid with the transcriptional machinery.
as §1
To test for the ability of the nucleases to block transfection, the media in individual wells of naive HeLa cells were replaced with conditioned media, and cells transfected with […] of N1-eGFP plasmid (Clontech) using various transfection reagents (FIG. 11) and their respective protocols. GFP expression by immunoblot directly correlated with transfection efficiency in present experiments. Thus, transfection efficiency was compared by densitometric analysis of GFP immunoblots.
GFP expression was also examined by fluorescent microscopy using a FITC filter. For microscopy, cells were fixed for 5 minutes in 4% paraformaldehyde dissolved into 1% PBS.
Antibody Reagents and Immunoblotting. After 24-36 hours, cells transfected with N1-eGFP were lysed in SDS-buffer and immunoblotted for expression with anti-GFP at 1:5000 dilution (Clontech). To confirm nearly equal protein loading per lane, anti-β-actin monoclonal antibody at 1:7,000 dilution (Sigma) were prepared. For immunoblots, […] protein was eletrophoretically separated by 12% SDS-PAGE gel, followed by electrotransfer to Immobilon-P membranes (Millipore) for expression studies. Immunoblotting was performed using ECL detection (Amersham).
Transfection efficiency was compared, wherever possible, by pixel densitometry of the scanned images using Scion Image 4.02 software.

For `CCCCCCCCCCCCCC(=O)O[C@@H]1[C@@H](C)[C@@]2(O)[C@@H](C=C(CO)C[C@]3(O)C(=O)C(C)=C[C@@H]23)[C@@H]2C(C)(C)[C@]12OC(C)=O` [PMA, phorbol myristate acetate], the “induction of D1L3 in macrophages” value with bone marrow macrophages is “inducible”.

Regarding lipopolysaccaride [LPS], the “induction of D1L3 in macrophages” value in the data set on bone marrow macrophages is “inducible”.

B1: D1: Murine deoxyribonuclease 1, glycosylated, supplied as media conditioned by transfected HeLa cells (protein, UniProt P49183 23-284, looked up)
Deoxyribonuclease-1: LRIAAFNIRTFGETKMSNATLSVYFVKILSRYDIAVIQEVRDSHLVAVGKLLDELNRDKPDTYRYVVSEPLGRKSYKEQYLFVYRPDQVSILDSYQYDDGCEPCGNDTFSREPAIVKFFSPYTEVQEFAIVPLHAAPTEAVSEIDALYDVYLDVWQKWGLEDIMFMGDFNAGCSYVTSSQWSSIRLRTSPIFQWLIPDSADTTVTSTHCAYDRIVVAGALLQAAVVPNSAVPFDFQAEYGLSNQLAEAISDHYPVEVTLRKI
Consider B1, for which the “GFP expression after Ad5.CMV-GFP infection / barrier to infection” value in the data set on Ad5.CMV-GFP is on record as “increased expression of GFP”. For the same molecule, the “state of liposome-bound plasmid after exposure to conditioned media” value in the data set with liposomal-bound plasmid was “all remaining plasmid migrated in a nicked or linearized conformation”. For the same molecule, the “RDA activity relative to D1L3 conditioned media” value with free DNA (densitometry of RDAs, n=24 assays) was around 2.7 fold. In addition, in the data set on free DNA (media conditioned by transfected HeLa cells), the “RDA nuclease activity of conditioned media (in words)” value is reported as “greater RDA activity than D3”. Also, the “mean RDA activity of conditioned media” value in the data set with free DNA (media conditioned by transfected HeLa cells, 24 hours, 37 degrees) came to 28.2 Units. The “GFP fluorescence by fluorescent microscopy” value with HeLa cells (24 hours) was “abundant GFP”. In addition, in the data set with HeLa cells (n=20 assays, anti-GFP immunoblot), the “mean ratio of GFP expression in exposed cells versus control” value came out at 0.8 ± 0.2. Also, the “BT activity / GFP expression or transfection efficiency in cells exposed to undiluted conditioned media” value in the data set with HeLa cells (undiluted conditioned media, FuGENE-6, anti-GFP immunoblot) is reported as “did not differ significantly from controls; also recorded: no significant decrease; also recorded: no effect”.
